The record followed here is US20160312265, “USE OF NUCLEIC ACID AGENTS FOR ULTRA-SENSITIVE DIGITAL DETECTION AND QUANTIFICATION OF TARGET MOLECULES” (Aptitude Medical Systems, Inc., published 2016).

The data set has as its target TNFα (tumor necrosis factor alpha) (UniProt P01375 P01375:77-233). The data set can be described thus: antibody-capture / aptamer-detection sandwich in ELISA wells, 5 nM aptamer, eluted at 95 C and counted by digital PCR; PBS, 0.05% Tween-20, 2.5 mM MgCl2, 1 mM CaCl2 wash; no numerical result in text. The note with it: tags: Shenandoah Biotechnology 100-111; chain copies: 3 (inferred). The method, then:
The ELISA wells (Thermo Scientific, Catalog #: 15031) were functionalized with a TNFα antibody (eBioscience, Catalog #: 14-7349-85) at 5 μg/ml in PBS overnight at 4° C. Right before use, the ELISA wells were blocked with 300 μL AptaBuffer (PBS+0.05% Tween-20+2.5 mM MgCl₂+1 mM CaCl₂+1% BSA+0.5 mg/mL Dextran Sulfate+0.1 mg/mL Salmon Sperm DNA) with gentle shaking at ˜500 RPM for at least 30 minutes.
Next, test samples (50 μL) containing the protein of interest (TNFα, Shenandoah Biotechnology, Catalog #: 100-111) were added to the washed ELISA wells and incubated for 1 hour with gentle shaking After the target-capture incubation, the ELISA wells were washed once with PBSMCT (PBS+0.05% Tween-20+2.5 mM MgCl₂+1 mM CaCl₂) and 5 nM of the detection TNFα aptamer was added to the wells and incubated for 30 minutes with gentle shaking. The ELISA plate was then washed 4 times with 300 μl of PBS-MCT after the incubation with the detection aptamer. In an embodiment, the sequence of TNFα aptamer is 5′-[…] […]-3′.
For the elution step, 100 μL of PCR grade water was added to each ELISA well. After heating the plate at 95° C. for 10 minutes, we transfer the 100 μL of eluent containing the detection aptamers into a new tube. The eluents are diluted 10 fold before they are measured by the QuantStudio® 3D Digital PCR System from Life Technologies.
(An ELISA detects its analyte on a solid surface through an enzyme-linked reagent.)

TNFα (tumor necrosis factor alpha), sequence (P01375 77-233, one chain of several): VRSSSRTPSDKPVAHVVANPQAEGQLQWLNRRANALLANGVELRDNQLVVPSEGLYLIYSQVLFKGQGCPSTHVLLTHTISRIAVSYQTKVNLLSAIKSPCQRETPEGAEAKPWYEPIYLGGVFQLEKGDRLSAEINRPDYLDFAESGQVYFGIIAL

B1: TNFα detection aptamer (ssDNA)
DNA: ATCCAGAGTGACGCAGCATGCTTAAGGGGGGGGCGGGTTAAGGGAGTGGGGAGGGAGCTGGTGTGGACACGGTGGCTTAGT
Take B1: the binding result is recorded as “binds”.
